# Measurements from publication PMC4503813, “The molecular and structural bases for the association of complement C3 mutations with atypical hemolytic uremic syndrome” (Molecular Immunology, 2015).
# B1: factor H (natural protein, human, UniProt P08603 19-1231, looked up)
# chain: EDCNELPPRRNTEILTGSWSDQTYPEGTQAIYKCRPGYRSLGNVIMVCRKGEWVALNPLRKCQKRPCGHPGDTPFGTFTLTGGNVFEYGVKAVYTCNEGYQLLGEINYRECDTDGWTNDIPICEVVKCLPVTAPENGKIVSSAMEPDREYHFGQAVRFVCNSGYKIEGDEEMHCSDDGFWSKEKPKCVEISCKSPDVINGSPISQKIIYKENERFQYKCNMGYEYSERGDAVCTESGWRPLPSCEEKSCDNPYIPNGDYSPLRIKHRTGDEITYQCRNGFYPATRGNTAKCTSTGWIPAPRCTLKPCDYPDIKHGGLYHENMRRPYFPVAVGKYYSYYCDEHFETPSGSYWDHIHCTQDGWSPAVPCLRKCYFPYLENGYNQNYGRKFVQGKSIDVACHPGYALPKAQTTVTCMENGWSPTPRCIRVKTCSKSSIDIENGFISESQYTYALKEKAKYQCKLGYVTADGETSGSITCGKDGWSAQPTCIKSCDIPVFMNARTKNDFTWFKLNDTLDYECHDGYESNTGSTTGSIVCGYNGWSDLPICYERECELPKIDVHLVPDRKKDQYKVGEVLKFSCKPGFTIVGPNSVQCYHFGLSPDLPICKEQVQSCGPPPELLNGNVKEKTKEEYGHSEVVEYYCNPRFLMKGPNKIQCVDGEWTTLPVCIVEESTCGDIPELEHGWAQLSSPPYYYGDSVEFNCSESFTMIGHRSITCIHGVWTQLPQCVAIDKLKKCKSSNLIILEEHLKNKKEFDHNSNIRYRCRGKEGWIHTVCINGRWDPEVNCSMAQIQLCPPPPQIPNSHNMTTTLNYRDGEKVSVLCQENYLIQEGEEITCKDGRWQSIPLCVEKIPCSQPPQIEHGTINSSRSSQESYAHGTKLSYTCEGGFRISEENETTCYMGKWSSPPQCEGLPCKSPPEISHGVVAHMSDSYQYGEEVTYKCFEGFGIDGPAIAKCLGEKWSHPPSCIKTDCLSLPSFENAIPMGEKKDVYKAGEQVTYTCATYYKMDGASNVTCINSRWTGRPTCRDTSCVNPPTVQNAYIVSRQMSKYPSGERVRYQCRSPYEMFGDEEVMCLNGNWTEPPQCKDSTGKCGPPPPIDNGDITSFPLSVYAPASSVEYQCQNLYQLEGNKRITCRNGQWSEPPKCLHPCVISREIMENYNIALRWTAKQKLYSRTGESVEFVCKRGYRLSSRSHTLRTTCWDGKLEYPTCAKR
# notes: complement factor H, human, from plasma; also called FH; CFH
# B2: soluble recombinant membrane cofactor protein (sMCP) (domain or fragment)
# chain: CEEPPTFEAMELIGKPKPYYEIGERVDYKCKKGYFYIPPLATHTICDRNHTWLPVSDDACYRETCPYIRDPLNGQAVPANGTYEFGYQMHFICNEGYYLIGEEILYCELKGSVAIWSGKPPICEKVLCTPPPKIKNGKHTFSEVEVFEYLDAVTYSCDPAPGPDPFSLIGESTIYCGDNSVWSRAAPECKVVKCRFPVVENGKQISGFGKKFYYKATVMFECDKGFYLDGSDTIVCDSNSTWDPPVPKCLKV
# notes: membrane cofactor protein (MCP, CD46), the first four short consensus repeats (SCR1-4); also called CD46; recombinant soluble MCP; source: recombinant; gift from Prof; Susan Lea, Oxford University
# Legend:
# [1] = biological target: C3b_(R161W) (human) (UniProt P01024)
# [2] = biological target: C3b_(R592W) (human) (UniProt P01024)
# [3] = biological target: wild-type C3b (human) (UniProt P01024); experiment: SPR; Biacore T100, CM5 chip; C3b surface brought to 1500 RU by thioester deposition (FB and FD with Mg2+ to form convertase, then mutant or wt C3 as substrate); sMCP 0.078-5 μM flowed 90 s, 300 s dissociation; 25 °C, 20 μl/min, HBS-EP; steady-state affinity analysis
# [4] = biological target: C3b_(R161W) (human) (UniProt P01024); experiment: as above
# [5] = biological target: C3b_(R592W) (human) (UniProt P01024); experiment: as above
# [6] = biological target: C3b_(I1157T) (human, UniProt P01024 749-1663; P01024 749-1663, I1157T, C3b state: beta and alpha' chains disulfide-linked. Thioester (Cys1010-Gln1013) opened: hydrolysed in trypsin-generated C3b, or covalently attached to the chip via thioester for MCP SPR. Plasma glycop); experiment: SPR; Biacore T100, CM5 chip; C3b immobilised (400 RU, amine coupling); FH 0.07-4.18 μM flowed 180 s, 300 s dissociation; 25 °C, 20 μl/min, HBS-EP; steady-state affinity analysis; details: both partners purified
# Sequence of C3b_(I1157T) (human, UniProt P01024 749-1663; P01024 749-1663, I1157T, C3b state: beta and alpha' chains disulfide-linked. Thioester (Cys1010-Gln1013) opened: hydrolysed in trypsin-generated C3b, or covalently attached to the chip via thioester for MCP SPR. Plasma glycop) (P01024 749-1663, stated change not applied, chain 1 of 2): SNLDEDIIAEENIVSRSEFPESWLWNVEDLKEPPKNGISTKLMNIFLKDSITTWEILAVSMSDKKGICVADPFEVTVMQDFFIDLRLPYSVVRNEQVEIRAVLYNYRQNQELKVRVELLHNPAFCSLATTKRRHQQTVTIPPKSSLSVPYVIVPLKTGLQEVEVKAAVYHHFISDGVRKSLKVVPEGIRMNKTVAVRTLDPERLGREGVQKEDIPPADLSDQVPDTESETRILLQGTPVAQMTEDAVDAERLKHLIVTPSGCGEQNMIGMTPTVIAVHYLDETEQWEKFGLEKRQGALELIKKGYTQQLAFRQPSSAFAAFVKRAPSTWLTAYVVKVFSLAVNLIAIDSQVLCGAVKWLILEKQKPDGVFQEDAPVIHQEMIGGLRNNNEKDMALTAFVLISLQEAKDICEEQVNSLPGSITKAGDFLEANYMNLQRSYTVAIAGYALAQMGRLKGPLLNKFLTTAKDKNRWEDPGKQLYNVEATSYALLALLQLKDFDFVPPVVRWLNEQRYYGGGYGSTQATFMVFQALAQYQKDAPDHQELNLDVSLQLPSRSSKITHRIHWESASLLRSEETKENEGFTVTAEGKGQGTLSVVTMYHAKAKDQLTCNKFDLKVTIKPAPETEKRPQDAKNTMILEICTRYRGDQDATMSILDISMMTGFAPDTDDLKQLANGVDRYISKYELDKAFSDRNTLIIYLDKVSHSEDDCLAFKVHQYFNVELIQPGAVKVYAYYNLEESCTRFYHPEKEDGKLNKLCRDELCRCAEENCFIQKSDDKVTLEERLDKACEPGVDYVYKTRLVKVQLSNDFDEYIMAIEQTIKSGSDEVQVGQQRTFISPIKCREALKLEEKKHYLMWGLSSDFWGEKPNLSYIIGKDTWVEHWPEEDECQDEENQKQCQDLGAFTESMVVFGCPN
# Sequence of C3b_(I1157T) (human, UniProt P01024 749-1663; P01024 749-1663, I1157T, C3b state: beta and alpha' chains disulfide-linked. Thioester (Cys1010-Gln1013) opened: hydrolysed in trypsin-generated C3b, or covalently attached to the chip via thioester for MCP SPR. Plasma glycop) (P01024 749-1663 I1157T, chain 2 of 2): as the sequence (P01024 749-1663, stated change not applied, chain 1 of 2) above, with I409T counted along it
# [7] = biological target: wild-type C3b (human) (UniProt P01024); experiment: as above
# [8] = biological target: C3b_(R161W) (human) (UniProt P01024); experiment: as above
# [9] = biological target: C3b_(R592W) (human) (UniProt P01024); experiment: as above
# [10] = biological target: C3b_(I1157T) (human, UniProt P01024 749-1663; P01024 749-1663, I1157T); experiment: SPR; Biacore T100, CM5 chip; C3b surface brought to 1500 RU by thioester deposition (FB and FD with Mg2+ to form convertase, then mutant or wt C3 as substrate); sMCP 0.078-5 μM flowed 90 s, 300 s dissociation; 25 °C, 20 μl/min, HBS-EP; steady-state affinity analysis; details: both partners purified
# Sequence of C3b_(I1157T) (human, UniProt P01024 749-1663; P01024 749-1663, I1157T) (P01024 749-1663, stated change not applied, chain 1 of 2): as the sequence (P01024 749-1663, stated change not applied, chain 1 of 2) above
# Sequence of C3b_(I1157T) (human, UniProt P01024 749-1663; P01024 749-1663, I1157T) (P01024 749-1663 I1157T, chain 2 of 2): as the sequence (P01024 749-1663, stated change not applied, chain 1 of 2) above, with I409T counted along it
molecule,measurement,setting,value
soluble recombinant membrane cofactor protein (sMCP) (from UniProt P15529 35-286) (domain or fragment),"FI-mediated cleavage of C3b with sMCP as cofactor, purified proteins in solution, 0-10 min at 37 °C; percent of C3b cleaved after 10 min (wt almost completely cleaved)",[1],70%
same,"FI-mediated cleavage of C3b with sMCP as cofactor, purified proteins in solution, 0-10 min at 37 °C; percent of C3b cleaved after 10 min (wt almost completely cleaved)",[2],70%
same,Kd,[3],570 nM
same,Kd,[4],930 nM
same,Kd,[5],710 nM
B1,Kd,[6],1420 nM
same,Kd,[7],960 nM
same,Kd,[8],2390 nM
same,Kd,[9],2450 nM
B2,Kd,[10],940 nM
